Columns and labels:
[1] = target: HIV-1 Env of pseudovirus 191955_A11 (clade A, T/F) (HIV-1); assay: cell-based or functional assay
[2] = target: HIV-1 Env of pseudovirus 3016.v5.c45 (clade D) (HIV-1); assay: cell-based or functional assay
[3] = target: HIV-1 Env of pseudovirus 3103.v3.c10 (clade ACD) (HIV-1); assay: cell-based or functional assay
[4] = target: HIV-1 Env of pseudovirus 620345.c01 (clade CRF01_AE) (HIV-1); assay: cell-based or functional assay
[5] = target: HIV-1 Env of pseudovirus 62357_14_D3_4589 (clade B, T/F) (HIV-1); assay: cell-based or functional assay
[6] = target: HIV-1 Env of pseudovirus 6545.v4.c1 (HIV-1); assay: cell-based or functional assay
[7] = target: HIV-1 Env of pseudovirus 6952.v1.c20 (clade CD) (HIV-1); assay: cell-based or functional assay
[8] = target: HIV-1 Env of pseudovirus AC10.0.29 (clade B) (HIV-1); assay: cell-based or functional assay
[9] = target: HIV-1 Env of pseudovirus BJOX028000.10.3 (clade CRF01_AE, T/F) (HIV-1); assay: cell-based or functional assay
[10] = target: HIV-1 Env of pseudovirus CAP210.2.00.E8 (clade C) (HIV-1); assay: cell-based or functional assay
[11] = target: HIV-1 Env of pseudovirus CNE20 (clade BC) (HIV-1); assay: cell-based or functional assay
[12] = target: HIV-1 Env of pseudovirus Ce1086_B2 (clade C, T/F) (HIV-1); assay: cell-based or functional assay
[13] = target: HIV-1 Env of pseudovirus Ce1172_H1 (clade C, T/F) (HIV-1); assay: cell-based or functional assay
[14] = target: HIV-1 Env of pseudovirus Du172.17 (clade C) (HIV-1); assay: cell-based or functional assay
[15] = target: HIV-1 Env of pseudovirus Du422.1 (clade C) (HIV-1); assay: cell-based or functional assay
[16] = target: HIV-1 Env of pseudovirus PVO.4 (clade B) (HIV-1); assay: cell-based or functional assay
[17] = target: HIV-1 Env of pseudovirus Q259.d2.17 (clade A) (HIV-1); assay: cell-based or functional assay
[18] = target: HIV-1 Env of pseudovirus R1166.c01 (clade CRF01_AE) (HIV-1); assay: cell-based or functional assay
[19] = target: HIV-1 Env of pseudovirus T250-4 (clade CRF02_AG) (HIV-1); assay: cell-based or functional assay
[20] = target: HIV-1 Env of pseudovirus X1254_c3 (clade G) (HIV-1); assay: cell-based or functional assay
[21] = target: HIV-1 Env of pseudovirus X2088_c9 (clade G) (HIV-1); assay: cell-based or functional assay
[22] = target: MuLV Env pseudovirus (negative control) (MuLV); assay: cell-based or functional assay
[23] = target: monomeric HIV-1 Ba-L gp120 (HIV-1 Ba-L); assay: retention on gp120 affinity column
[24] = target: HIV-1 93TH057 gp120 coree (HIV-1); assay: PDB 3ngb structure, PISA interface

N49P7YTE (antibody)
IC50, titer in TZM.bl cells [1]: 39 µg/mL
IC80, titer in TZM.bl cells [1]: > 50 µg/mL
MPI [1]: 56
IC50, titer in TZM.bl cells [2]: 1.15 µg/mL
IC80, titer in TZM.bl cells [2]: 9.65 µg/mL
MPI [2]: 89
IC50, titer in TZM.bl cells [3]: 0.322 µg/mL
IC80, titer in TZM.bl cells [3]: 0.583 µg/mL
MPI [3]: 100
IC50, titer in TZM.bl cells [4]: > 50 µg/mL
IC80, titer in TZM.bl cells [4]: > 50 µg/mL
MPI [4]: 0
IC50, titer in TZM.bl cells [5]: 0.039 µg/mL
IC80, titer in TZM.bl cells [5]: 0.173 µg/mL
MPI [5]: 100
IC50, titer in TZM.bl cells [6]: > 50 µg/mL
IC80, titer in TZM.bl cells [6]: > 50 µg/mL
MPI [6]: 45
IC50, titer in TZM.bl cells [7]: > 50 µg/mL
IC80, titer in TZM.bl cells [7]: > 50 µg/mL
MPI [7]: 13
IC50, titer in TZM.bl cells [8]: > 50 µg/mL
IC80, titer in TZM.bl cells [8]: > 50 µg/mL
MPI [8]: 28
IC50, titer in TZM.bl cells [9]: 0.018 µg/mL
IC80, titer in TZM.bl cells [9]: 0.155 µg/mL
MPI [9]: 100
IC50, titer in TZM.bl cells [10]: 3.11 µg/mL
IC80, titer in TZM.bl cells [10]: 13.9 µg/mL
MPI [10]: 99
IC50, titer in TZM.bl cells [11]: 0.11 µg/mL
IC80, titer in TZM.bl cells [11]: 0.317 µg/mL
MPI [11]: 99
IC50, titer in TZM.bl cells [12]: 0.113 µg/mL
IC80, titer in TZM.bl cells [12]: 0.53 µg/mL
MPI [12]: 99
IC50, titer in TZM.bl cells [13]: > 50 µg/mL
IC80, titer in TZM.bl cells [13]: > 50 µg/mL
MPI [13]: 12
IC50, titer in TZM.bl cells [14]: 0.283 µg/mL
IC80, titer in TZM.bl cells [14]: 0.953 µg/mL
MPI [14]: 100
IC50, titer in TZM.bl cells [15]: 13.2 µg/mL
IC80, titer in TZM.bl cells [15]: > 50 µg/mL
MPI [15]: 76
IC50, titer in TZM.bl cells [16]: 0.088 µg/mL
IC80, titer in TZM.bl cells [16]: 0.394 µg/mL
MPI [16]: 100
IC50, titer in TZM.bl cells [17]: 5.34 µg/mL
IC80, titer in TZM.bl cells [17]: 44.1 µg/mL
MPI [17]: 82
IC50, titer in TZM.bl cells [18]: 0.232 µg/mL
IC80, titer in TZM.bl cells [18]: 0.782 µg/mL
MPI [18]: 100
IC50, titer in TZM.bl cells [19]: > 50 µg/mL
IC80, titer in TZM.bl cells [19]: > 50 µg/mL
MPI [19]: 43
IC50, titer in TZM.bl cells [20]: 26.2 µg/mL
IC80, titer in TZM.bl cells [20]: > 50 µg/mL
MPI [20]: 59
IC50, titer in TZM.bl cells [21]: 0.329 µg/mL
IC80, titer in TZM.bl cells [21]: 1.06 µg/mL
MPI [21]: 100
IC50, titer in TZM.bl cells [22]: > 50 µg/mL
IC80, titer in TZM.bl cells [22]: > 50 µg/mL
MPI [22]: 4

Synagis (antibody)
recovery from gp120 affinity column [23]: < 1%

VRC01 Fab
Ratio of OD/ID buried surface area [24]: 9.68
buried surface area, CDR H1 [24]: 3 Å^2
buried surface area, CDR H2 [24]: 598 Å^2
buried surface area, CDR L1 [24]: 50 Å^2
buried surface area, CDR L2 [24]: 0 Å^2
buried surface area, CDR L3 [24]: 132 Å^2
buried surface area, CDRH3 [24]: 160 Å^2
buried surface area, Fab heavy and light chain total [24]: 1200 Å^2
buried surface area, Fab heavy chain total [24]: 897 Å^2
buried surface area, Fab light chain total [24]: 306 Å^2
buried surface area, gp120 CD4 binding loop of OD [24]: 188 Å^2
buried surface area, gp120 Loop D of OD [24]: 322 Å^2
buried surface area, gp120 Loop V5 of OD [24]: 301 Å^2
buried surface area, gp120 inner domain (ID) [24]: 107 Å^2
buried surface area, gp120 outer domain (OD) [24]: 1040 Å^2
buried surface area, gp120 total [24]: 1140 Å^2
buried surface area, heavy chain FWR [24]: 136 Å^2
buried surface area, light chain FWR [24]: 124 Å^2

— patent US20230002480A1
